Measurements taken from article PMC8286842, “The structures of E. coli NfsA bound to the antibiotic nitrofurantoin; to 1,4-benzoquinone and to FMN” (Biochemical Journal, 2021).

Key:
Assay type in all cases: biochemical, Escherichia coli
[1] = substrate: NC(=O)C1=CN([C@@H]2O[C@H](COP(=O)(O)OP(=O)(O)OC[C@H]3O[C@@H](n4cnc5c(N)ncnc54)[C@H](OP(=O)(O)O)[C@@H]3O)[C@@H](O)[C@H]2O)C=CC1; assay: steady-state kinetics, purified enzyme (global ping-pong fit with nitrofurantoin); conditions: FMN; pH 7.0; 25.0 °C; varied: cofactor
[2] = substrate: NC(=O)N/N=C/c1ccc([N+](=O)[O-])o1; assay: steady-state kinetics of reduction by NADPH, purified enzyme; conditions: FMN; pH 7.0; 25.0 °C
[3] = substrate: NC(=O)c1cc(N2CC2)c([N+](=O)[O-])cc1[N+](=O)[O-]; assay: as above; conditions: FMN; pH 7.0; 25.0 °C
purified protein [4] = substrate: CC1=CC(=O)c2ccccc2C1=O; assay: purified protein; conditions: FMN; pH 7.0; 25.0 °C
purified protein [5] = substrate: O=C1C=CC(=O)C=C1; assay: purified protein; conditions: FMN active site, stacked on FMN; O2′ hydroxyl of FMN, backbone NH of Ser […], Gln […], close to Arg […]; a separate, additional quinol ring appears covalently attached at Cys […]; pH 7.0; 25.0 °C
purified protein [6] = substrate: O=C1CN(/N=C/c2ccc([N+](=O)[O-])o2)C(=O)N1; assay: purified protein; conditions: FMN active site, parallel to the FMN ring; hydrogen bonds involving Arg […], Lys […], Arg […] and Ser […]; pH 7.0; 25.0 °C

B1: NfsA (Escherichia coli K-12) (protein)
chain: MTPTIELICGHRSIRHFTDEPISEAQREAIINSARATSSSSFLQCSSIIRITDKALREELVTLTGGQKHVAQAAEFWVFCADFNRHLQICPDAQLGLAEQLLLGVVDTAMMAQNALIAAESLGLGGVYIGGLRNNIEAVTKLLKLPQHVLPLFGLCLGWPADNPDLKPRLPASILVHENSYQPLDKGALAQYDEQLAEYYLTRGSNNRRDTWSDHIRRTIIKESRPFILDYLHKQGWATR
notes: untagged, dimer
- Km [1]: 10.9 ± 1.6 (Km) µM
- kcat [1]: 81 ± 3 s⁻¹
- kcat/Km [1]: 7.4e+06 ± 1e+06 M⁻¹ s⁻¹
- Km [2]: 13 ± 2 (Km) µM
- kcat [2]: 29.6 ± 0.9 s⁻¹
- kcat/Km [2]: 2.3e+06 ± 200000 M⁻¹ s⁻¹
- Km [3]: 190 ± 20 (Km) µM
- kcat [3]: 42 ± 1 s⁻¹
- kcat/Km [3]: 230000 ± 2000 M⁻¹ s⁻¹
- Km (purified protein [4]): 11 ± 2 (Km app) µM
- kcat (purified protein [4]): 9 ± 0.4 s⁻¹
- kcat/Km (purified protein [4]): 820000 ± 80000 M⁻¹ s⁻¹
- Km (purified protein [5]): 3 ± 0.4 (Km app) µM
- kcat (purified protein [5]): 24 ± 0.8 s⁻¹
- kcat/Km (purified protein [5]): 8e+06 ± 800000 M⁻¹ s⁻¹
- Km (purified protein [6]): 20.6 ± 1.6 (Km) µM
- kcat (purified protein [6]): 81 ± 3 s⁻¹
- kcat/Km (purified protein [6]): 3.9e+06 ± 200000 M⁻¹ s⁻¹
